Data: patent EP4703474A1, “ANTI-LRRC15 ANTIBODY” (priority 2023, dated 2024)

T1: human LRRC15 (full-length, on cells) (human, UniProt Q8TF66 22-581)
T1 construct: also called hLRRC15; endogenous LRRC15 of Hs294T
T1 sequence: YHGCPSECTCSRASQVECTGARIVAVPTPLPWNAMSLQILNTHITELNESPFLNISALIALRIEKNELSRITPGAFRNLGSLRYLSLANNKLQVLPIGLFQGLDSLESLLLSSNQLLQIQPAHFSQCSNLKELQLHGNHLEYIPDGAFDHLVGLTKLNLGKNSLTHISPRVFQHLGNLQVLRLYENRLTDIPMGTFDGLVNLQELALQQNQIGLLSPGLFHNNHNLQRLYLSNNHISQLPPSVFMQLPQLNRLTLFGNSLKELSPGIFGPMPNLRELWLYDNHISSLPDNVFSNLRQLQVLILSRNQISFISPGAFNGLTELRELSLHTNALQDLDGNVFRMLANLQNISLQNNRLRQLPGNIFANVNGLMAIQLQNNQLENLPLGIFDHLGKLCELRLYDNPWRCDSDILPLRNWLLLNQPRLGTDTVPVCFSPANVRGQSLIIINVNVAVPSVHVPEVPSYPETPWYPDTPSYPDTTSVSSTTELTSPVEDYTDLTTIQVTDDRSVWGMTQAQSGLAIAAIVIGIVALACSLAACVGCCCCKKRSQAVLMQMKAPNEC

T2: cynomolgus monkey LRRC15 extracellular domain expressed on HEK293α (pDisplay-cynoLRRC15 ECD) (cynomolgus monkey, UniProt Q8TF66 22-538 (human entry))
T2 construct: vector-derived parts not described
T2 chain: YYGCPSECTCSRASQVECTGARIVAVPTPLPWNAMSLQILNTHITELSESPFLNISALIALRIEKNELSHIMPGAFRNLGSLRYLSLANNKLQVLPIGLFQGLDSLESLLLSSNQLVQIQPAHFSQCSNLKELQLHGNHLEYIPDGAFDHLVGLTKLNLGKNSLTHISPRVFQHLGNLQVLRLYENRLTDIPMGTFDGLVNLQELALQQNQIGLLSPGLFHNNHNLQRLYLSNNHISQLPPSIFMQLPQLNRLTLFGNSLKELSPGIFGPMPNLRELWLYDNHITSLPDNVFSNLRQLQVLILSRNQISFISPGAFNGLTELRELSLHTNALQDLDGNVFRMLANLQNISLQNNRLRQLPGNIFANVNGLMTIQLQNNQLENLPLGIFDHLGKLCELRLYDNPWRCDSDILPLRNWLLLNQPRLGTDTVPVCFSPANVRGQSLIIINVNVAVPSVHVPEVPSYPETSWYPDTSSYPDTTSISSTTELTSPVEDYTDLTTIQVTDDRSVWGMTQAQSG

T3: human LRRC15 extracellular domain expressed on HEK293α (pDisplay-hLRRC15 ECD) (human, UniProt Q8TF66 22-538)
T3 construct: also called WT; human LRRC15 wild-type
T3 sequence: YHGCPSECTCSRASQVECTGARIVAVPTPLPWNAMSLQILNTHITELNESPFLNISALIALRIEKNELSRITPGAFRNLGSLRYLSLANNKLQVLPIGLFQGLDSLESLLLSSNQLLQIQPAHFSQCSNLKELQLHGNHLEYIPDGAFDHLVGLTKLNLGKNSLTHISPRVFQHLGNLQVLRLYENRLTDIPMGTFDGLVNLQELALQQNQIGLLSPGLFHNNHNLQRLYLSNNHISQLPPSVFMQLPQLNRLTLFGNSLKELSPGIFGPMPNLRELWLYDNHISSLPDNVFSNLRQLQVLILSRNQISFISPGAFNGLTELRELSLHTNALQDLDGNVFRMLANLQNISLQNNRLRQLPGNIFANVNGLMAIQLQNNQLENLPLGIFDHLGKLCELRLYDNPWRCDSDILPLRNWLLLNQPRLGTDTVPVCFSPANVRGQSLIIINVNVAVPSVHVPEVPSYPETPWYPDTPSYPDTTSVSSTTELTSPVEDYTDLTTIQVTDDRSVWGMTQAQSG

T4: human LRRC15-His protein (human, UniProt Q8TF66 22-538)
T4 construct: Recombinant, expressed in mammalian cells; also called human LRRC15 antigen; hLRRC15-His
T4 sequence: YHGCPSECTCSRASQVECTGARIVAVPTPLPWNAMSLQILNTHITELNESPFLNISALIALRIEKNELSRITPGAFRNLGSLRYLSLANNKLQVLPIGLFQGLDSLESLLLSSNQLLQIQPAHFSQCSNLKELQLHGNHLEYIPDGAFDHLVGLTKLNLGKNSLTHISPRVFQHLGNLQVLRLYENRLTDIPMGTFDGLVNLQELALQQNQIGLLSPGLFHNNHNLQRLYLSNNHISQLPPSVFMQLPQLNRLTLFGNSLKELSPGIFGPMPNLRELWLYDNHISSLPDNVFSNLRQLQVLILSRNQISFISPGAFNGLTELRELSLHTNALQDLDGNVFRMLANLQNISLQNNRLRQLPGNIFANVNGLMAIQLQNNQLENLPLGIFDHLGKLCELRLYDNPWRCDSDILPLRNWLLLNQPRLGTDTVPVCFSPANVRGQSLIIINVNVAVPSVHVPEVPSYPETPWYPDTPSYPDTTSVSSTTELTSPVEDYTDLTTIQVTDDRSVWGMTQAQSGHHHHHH


How the values were obtained:
[1] = target: T1, human LRRC15 (full-length, on cells); test: Cell-ELISA, hybridoma supernatant on HEK293α transfected with pcDNA3.1-hLRRC15
[2] = target: T1, human LRRC15 (full-length, on cells); test: flow cytometry, endogenous LRRC15 on human melanoma line Hs294T
[3] = target: T2, cynomolgus monkey LRRC15 extracellular …; test: flow cytometry, transfected HEK293α, 10 µg/mL
[4] = target: T3, human LRRC15 extracellular domain …; test: flow cytometry, HEK293α expressing WT human LRRC15 ECD
human LRRC15-His protein = target: T4, human LRRC15-His protein; test: SPR, Biacore T200; antibody captured by anti-human IgG (Fc), human LRRC15-His as analyte, 1:1 model
[5] = target: T3, human LRRC15 extracellular domain …; test: flow cytometry, transfected HEK293α, 10 µg/mL

binding result [1]	binding result [2]	binding result [3]	binding result [4]	Kd (human LRRC15-His protein) [nM]	binding result [5]	Binder
binds						rR024 antibody (antibody, rat IgG2b, V domains shown, Rat monoclonal antibody from hybridoma culture supernatant; rat IgG2b, kappa light chain; also called clone rR024) VH: EVQLVESNGALVQPGRSLKLSCAASGFTFRDYYMAWVRQAPSKGLEWVASIGFDESRTYYRDSVKGRFTISRDDVKSTLYLQLDSLRSEDTATYYCTRHGVSYYSGDNWFAYWGQGALVIVSS VL: DIVMTQSPSSLAVSAGETVIINCKSSQGLLYSGDQKNYLAWYQQKPGQSPKLLIYWASTRQSGVPDRFIGSGSGTDFTLTISSVQGEDLAIYYCQQYYDPPYTFGAGTKLELKR
	binds	binds	binds			H02L01 antibody (antibody, human IgG1, kappa, L234A L235A, V domains shown, Humanized anti-LRRC15 antibody, human IgG1 / kappa; also called hR024 (hR024 H02 + hR024 L01)) VH: EVQLVESGGGLVQPGGSLRLSCAASGFTFRDYYMAWVRQAPGKGLEWVSSIGFDESRTYYADSVKGRFTISRDDSKNTLYLQMNSLRAEDTAVYYCARHGVSYYSGDNWFAYWGQGTLVTVSS VL: DIQMTQSPSSLSASVGDRVTITCKSSQGLLYSGDQKNYLAWYQQKPGKAPKLLIYWASTRQSGVPSRFSGSGSGTDFTLTISSLQPEDFATYYCQQYYDPPYTFGQGTKVEIKR
		binds		59.9		H02L01-V1 antibody (antibody, human IgG1, kappa, L234A L235A, V domains shown, Humanized anti-LRRC15 antibody, human IgG1 / kappa; also called hR024 (hR024 H02-V1 + hR024 L01)) VH: EVQLVESGGGLVQPGGSLRLSCAASGFTFRDYYMAWVRQAPGKGLEWVSSIGFDESRTYYADSVKGRFTISRDDSKNTLYLQMNSLRAEDTAVYYCARHGVSKYSGDNWFAYWGQGTLVTVSS VL: DIQMTQSPSSLSASVGDRVTITCKSSQGLLYSGDQKNYLAWYQQKPGKAPKLLIYWASTRQSGVPSRFSGSGSGTDFTLTISSLQPEDFATYYCQQYYDPPYTFGQGTKVEIKR
	binds	binds			binds	H02L01-V2 antibody (antibody, human IgG1, kappa, L234A L235A, V domains shown, Humanized anti-LRRC15 antibody, human IgG1 / kappa; also called hR024 (hR024 H02-V2 + hR024 L01)) VH: EVQLVESGGGLVQPGGSLRLSCAASGFTFRDYYMAWVRQAPGKGLEWVSSIGFDESRTYYADSVKGRFTISRDDSKNTLYLQMNSLRAEDTAVYYCARHGVSRYSGDNWFAYWGQGTLVTVSS VL: DIQMTQSPSSLSASVGDRVTITCKSSQGLLYSGDQKNYLAWYQQKPGKAPKLLIYWASTRQSGVPSRFSGSGSGTDFTLTISSLQPEDFATYYCQQYYDPPYTFGQGTKVEIKR
	binds	binds			binds	H09L03 antibody (antibody, human IgG1, kappa, L234A L235A, V domains shown, Humanized anti-LRRC15 antibody, human IgG1 / kappa; also called hR024 (hR024 H09 + hR024 L03)) VH: EVQLVESGGGLVQPGGSLRLSCAASGFTFRDYYMAWVRQAPGKGLEWVASIGFDESRTYYADSVKGRFTISRDDSKSTLYLQMNSLRAEDTAVYYCTRHGVSYYSGDNWFAYWGQGTLVTVSS VL: DIQMTQSPSSLSASVGDRVTITCKSSQGLLYSGDQKNYLAWYQQKPGKSPKLLIYWASTRQSGVPDRFSGSGSGTDFTLTISSLQPEDFATYYCQQYYDPPYTFGQGTKVEIKR
